Molecular target: T1, Lhx3 LIM1+2 as it stands in the tethered complex Ldb1-Lhx3 (mouse, UniProt P50481-1 28-153)
T1 construct: Lhx3 (LIM homeobox protein 3), mouse, both LIM domains, residues 28-153; source: part of the tethered Ldb1-Lhx3 chain
T1 sequence (looked up): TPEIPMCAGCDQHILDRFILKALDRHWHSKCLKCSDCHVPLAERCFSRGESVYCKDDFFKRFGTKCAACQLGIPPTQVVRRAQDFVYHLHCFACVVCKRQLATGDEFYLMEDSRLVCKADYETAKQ
Assay: SAXS; Ldb1-Lhx3 tethered complex at 4.5 mg mL^-1 in 20 mM Na2HPO4, 40 mM NaCl, 1 mM DTT, pH 6.8, 283 K; mass from I(0), Guinier analysis, DAMMIF and BUNCH modelling
Conditions: both partners purified

binding result: binds
B1: Ldb1LID as it stands in the tethered complex Ldb1-Lhx3 (domain or fragment, mouse, UniProt P70662-3 300-339, looked up)
chain: DVMVVGEPTLMGGEFGDEDERLITRLENTQFDAANGIDDE
notes: numbers count on: isoform P70662-3; source: part of the tethered Ldb1-Lhx3 chain
